Values of other authors in publication PMC2799686.

Biological target: DnaK (Escherichia coli) (UniProt P0A6Y8)
Assay: competition

DnaK (Escherichia coli), sequence (P0A6Y8 2-638): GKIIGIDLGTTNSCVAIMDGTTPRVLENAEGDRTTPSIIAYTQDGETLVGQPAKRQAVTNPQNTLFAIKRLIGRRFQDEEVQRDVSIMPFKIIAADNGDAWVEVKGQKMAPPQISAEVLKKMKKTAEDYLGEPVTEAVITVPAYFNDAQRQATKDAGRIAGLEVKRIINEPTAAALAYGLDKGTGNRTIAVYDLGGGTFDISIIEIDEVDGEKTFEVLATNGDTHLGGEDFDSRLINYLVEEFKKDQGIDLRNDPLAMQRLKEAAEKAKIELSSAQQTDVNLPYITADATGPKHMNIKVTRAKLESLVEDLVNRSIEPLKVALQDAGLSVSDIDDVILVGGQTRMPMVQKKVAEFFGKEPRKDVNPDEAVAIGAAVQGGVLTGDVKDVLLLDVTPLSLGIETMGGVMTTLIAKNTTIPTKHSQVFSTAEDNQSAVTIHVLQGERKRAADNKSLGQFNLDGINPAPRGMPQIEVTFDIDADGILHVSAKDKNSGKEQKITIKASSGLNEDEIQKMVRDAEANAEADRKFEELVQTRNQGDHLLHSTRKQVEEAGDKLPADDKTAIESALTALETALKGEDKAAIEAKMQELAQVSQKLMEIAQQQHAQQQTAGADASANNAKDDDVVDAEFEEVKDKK
pyrrhocoricin, sequence (P37362 whole entry): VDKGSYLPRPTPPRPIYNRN

Kd: 50 µM
Substance: pyrrhocoricin (from UniProt P37362)
